Test results: patent publication US20200207874A1 (Hoffmann-La Roche, published 2020)
Several values for one entry are separate records, joined by “and”; a condition that tells them apart may be missing. Equal entries are not always repeated. Values belong to the binder of their own block, whether it stands above or below them.

Tests used:
streptavidin (SA) = target: T1, streptavidin (SA) (UniProt P22629 37-163, limits assumed); experiment: SPR (BIAcore 3000), streptavidin injected over 2C4-FAB'-ss-L-DNA bound to captured huFc chimera HER2 ECD
T1 construct: Injected at 250 nM as effector moiety to probe the biotin of the 75mer ss-L-DNA linker
Source text: The BIAcore assay setup comprised the following (see also FIG. 6): A polyclonal goat anti human IgG-Fc gamma antibody was immobilized on the BIAcore CM5 sensor and serves as a capture system for the huFc chimera HER2 ECD.
The FAB fragments have a calculated molecular weight of 57 kDa, each. […] Streptavidin is the effector moiety.

[1] = target: T2, IGF-1R(1340-1366)[1346-pTyr]amid (phosphotyrosine at 1346; C-terminal amide); experiment: SPR (BIAcore 3000, SA sensor, 25 C): ss-FABs hybridized on the biotinylated T40-Bi 77-mer ss-DNA linker on the surface; peptide as analyte in solution
T2 construct: also called pIGF-1R peptide (free in solution); phosphorylated IGF-1R peptide
T2 peptide: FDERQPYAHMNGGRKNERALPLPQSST
Procedure: (§1) A BIAcore 3000 instrument (GE Healthcare) was used with a BIAcore SA sensor mounted into the system at T=25° C. The system was preconditioned at 100 μl/min with 3×1 min injection of 1 M NaCl in 50 mM NaOH and 1 min 10 mM HCl.
(§2) 124 RU amino-PEO-biotin were captured on the reference flow cell 1. […] As a control, buffer was injected instead of the ss-Fabs.
(§3) The dissociation was monitored at 50 μl/min for 5.3 min. The system was regenerated after each concentration step with a 12 sec pulse of 250 mM NaOH and was reloaded with ss-FAB ligand.

IGF-1R(1340-1366)amid [2] = target: T3, IGF-1R(1340-1366)amid (C-terminal amide); experiment: as above
T3 construct: also called IGF-1R peptide (free in solution); non-phosphorylated IGF-1R peptide
T3 peptide: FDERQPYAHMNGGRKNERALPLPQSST
Procedure: as §1, §2, §3

[3] = target: T2, IGF-1R(1340-1366)[1346-pTyr]amid; experiment: SPR (BIAcore 3000), complex on SA sensor, peptide in solution
Procedure: as §1, §2, §3

[4] = target: T4, hInsR(1355-1382)[1361-pTyr; Glu(Bi-PEG-1355]amid (human, not fully specified; phosphotyrosine at 1361; PEG linker with biotin on the glutamic acid at position 1355; C-terminal amide); experiment: SPR (BIAcore 2000), biotinylated peptide on SA sensor
T4 construct: also called pIR peptide; IR (phosphorylated insulin receptor) peptide (biotinylated)
T4 peptide: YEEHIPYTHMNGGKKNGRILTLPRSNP

[5] = target: T2, IGF-1R(1340-1366)[1346-pTyr]amid; experiment: SPR (BIAcore 3000, SA sensor, 25 C): single ss-FAB hybridized on the biotinylated T0-Bi 37-mer ss-DNA linker on the surface; peptide as analyte in solution
Procedure: as §1, §2, §3

IGF-1R(1340-1366)amid [6] = target: T3, IGF-1R(1340-1366)amid; experiment: as above
Procedure: as §1, §2, §3

[7] = target: T2, IGF-1R(1340-1366)[1346-pTyr]amid; experiment: SPR (BIAcore 3000, SA sensor, 25 C): single ss-FAB hybridized on the biotinylated T40-Bi 77-mer ss-DNA linker on the surface; peptide as analyte in solution
Procedure: as §1, §2, §3

[8] = target: T5, INR(1355-1382)[1361-pTyr]amid (human, phosphotyrosine at 1361; C-terminal amide); experiment: as above
T5 construct: also called pINR peptide; phosphorylated insulin receptor peptide (free in solution)
T5 peptide: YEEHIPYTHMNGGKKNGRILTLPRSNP
Procedure: as §1, §2, §3

IGF-1R(1340-1366)amid [9] = target: T3, IGF-1R(1340-1366)amid; experiment: as above
Procedure: as §1, §2, §3

[10] = target: T6, IGF-1R(1340-1366)[1346-pTyr; Glu(Bi-PEG-1340]amid (not fully specified; phosphotyrosine at 1346; PEG linker with biotin on the glutamic acid at position 1340; C-terminal amide); experiment: SPR (BIAcore 2000), biotinylated peptide on SA sensor, 100 nM analyte
T6 construct: also called pIGF-1R peptide (biotinylated); phosphorylated IGF-1R peptide
T6 peptide: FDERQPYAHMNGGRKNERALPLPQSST

[11] = target: T7, IGF-1R(1340-1366); Glu(Bi-PEG-1340]amid (not fully specified; PEG linker with biotin on the glutamic acid at position 1340; C-terminal amide); experiment: as above
T7 construct: also called IGF-1R peptide (biotinylated, non-phosphorylated)
T7 peptide: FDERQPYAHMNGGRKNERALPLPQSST

[12] = target: T2, IGF-1R(1340-1366)[1346-pTyr]amid; experiment: SPR (BIAcore 3000, SA sensor, 25 C): ss-FABs hybridized on the biotinylated T0-Bi 37-mer ss-DNA linker on the surface; peptide as analyte in solution
Procedure: as §1, §2, §3

IGF-1R(1340-1366)amid [13] = target: T3, IGF-1R(1340-1366)amid; experiment: as above
Procedure: as §1, §2, §3

T1 sequence (P22629 37-163 limits assumed): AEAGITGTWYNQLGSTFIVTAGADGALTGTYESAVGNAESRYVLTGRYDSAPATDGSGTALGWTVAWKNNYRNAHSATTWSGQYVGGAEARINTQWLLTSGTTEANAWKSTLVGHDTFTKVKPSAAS

B3: ss-FAB′ 1.4.168 (Fab, V domains shown)
VH: DVKLVESGGGLVKPGGSLKLSCAASGFTFSDYPMSWVRQTPEKRLEWVATITTGGTYTYYPDSIKGRFTISRDNAKNTLYLQMGSLQSEDAAMYYCTRVKTDLWWGLAYWGQGTLVTVSA
VL: QLVLTQSSSASFSLGASAKLTCTLSSQHSTYTIEWYQQQPLKPPKYVMELKKDGSHTTGDGIPDRFSGSSSGADRYLSISNIQPEDESIYICGVGDTIKEQFVYVFGGGTKVTVLG
modifications: cysteine of the FAB′ hinge region linked to 17mer ss-DNA comprising SEQ ID NO: 05 with fluorescein
notes: FAB′ from pepsin cleavage of murine mAb 1.4.168; also called ss-FAB 1.004.168; fluorescein-ss-FAB′ 1.4.168
- binding result [4]: no binding (tested: 100 nM)
- Kd [5]: 2.59 nM and 3 nM
- koff [5]: 0.00291 s⁻¹
- kon [5]: 1.12e+06 M⁻¹ s⁻¹
- t1/2 diss [5]: 4 min
- Kd (IGF-1R(1340-1366)amid [6]): 1.35 nM and 1 nM
- koff (IGF-1R(1340-1366)amid [6]): 0.00326 s⁻¹
- kon (IGF-1R(1340-1366)amid [6]): 2.41e+06 M⁻¹ s⁻¹
- t1/2 diss (IGF-1R(1340-1366)amid [6]): 4 min
- Kd [7]: 2.14 nM and 2 nM
- koff [7]: 0.00419 s⁻¹
- kon [7]: 1.96e+06 M⁻¹ s⁻¹
- binding result [8]: no binding (tested: 300 nM (highest peptide step))
- Kd (IGF-1R(1340-1366)amid [9]): 1.1 nM and 1 nM
- koff (IGF-1R(1340-1366)amid [9]): 0.00362 s⁻¹
- kon (IGF-1R(1340-1366)amid [9]): 3.3e+06 M⁻¹ s⁻¹
- t1/2 diss (IGF-1R(1340-1366)amid [9]): 3 min
- T1/2 dis [10]: 3 min
- T1/2 dis [11]: 3 min

B4: T0 dual binding agent: ss-FAB 8.1.2 and ss-FAB 1.4.168 on the biotinylated T0-Bi 37-mer ss-DNA linker (linker 17) (bispecific antibody, V domains shown)
VH 1: EVQLQQSGPALVKPGASVKMSCKASGFTFTSYVIHWVKQKPGQGLEWIGYLNPYNDNTKYNEKFKGKATLTSDRSSSTVYMEFSSLTSEDSAVYFCARRGIYAYDHYFDYWGQGTSLTVSS
VL 1: QIVLTQSPAIMSASPGEKVTLTCSASSSVNYMYWYQQKPGSSPRLLIYDTSNLASGVPVRFSGSGSVTSYSLTISRMEAEDAATYYCQQWSTYPLTFGAGTKLELK
VH 2: QCDVKLVESGGGLVKPGGSLKLSCAASGFTFSDYPMSWVRQTPEKRLEWVATITTGGTYTYYPDSIKGRFTISRDNAKNTLYLQMGSLQSEDAAMYYCTRVKTDLWWGLAYWGQGTLVTVSA
VL 2: QLVLTQSSSASFSLGASAKLTCTLSSQHSTYTIEWYQQQPLKPPKYVMELKKDGSHTTGDGIPDRFSGSSSGADRYLSISNIQPEDESIYICGVGDTIKEQFVYVFGGGTKVTVLG
modifications: FAB′ hinge cysteine linked to ss-DNA
- Kd [12]: 0.0344 nM
- Kd (IGF-1R(1340-1366)amid [13]): 1.2 nM and 1 nM
- t1/2 diss (IGF-1R(1340-1366)amid [13]): 5 min
- Kd [3]: 0.03 nM

The next lines start with the values.

- binding result (streptavidin (SA)): no binding (tested: 250 nM)
B1: anti-HER2 antibody 2C4-FAB′-ss-L-DNA (Fab, V domains shown)
VH: EVQLVESGGGLVQPGGSLRLSCAASGFTFTDYTMDWVRQAPGKGLEWVADVNPNSGGSIYNQRFKGRFTLSVDRSKNTLYLQMNSLRAEDTAVYYCARNLGPSFYFDYWGQGTLVTVSS
VL: DIQMTQSPSSLSASVGDRVTITCKASQDVSIGVAWYQQKPGKAPKLLIYSASYRYTGVPSRFSGSGSGTDFTLTISSLQPEDFATYYCQQYYIYPYTFGQGTKVEIKQ
modifications: cysteine of the FAB′ hinge region linked via maleimide to fluorescein-labeled ss-L-DNA oligonucleotide
notes: FAB′ of 2C4 (Pertuzumab); also called 2C4-ss-L-DNA; 2C4-75mer

- Kd [1]: 0.0125 nM
- Kd (IGF-1R(1340-1366)amid [2]): 0.973 nM and 1 nM
- t1/2 diss (IGF-1R(1340-1366)amid [2]): 4.3 min
- Kd [3]: 0.01 nM
B2: T40 dual binding agent: ss-FAB 8.1.2 and ss-FAB 1.4.168 on the biotinylated T40-Bi 77-mer ss-DNA linker (linker 10) (bispecific antibody, V domains shown)
VH 1: EVQLQQSGPALVKPGASVKMSCKASGFTFTSYVIHWVKQKPGQGLEWIGYLNPYNDNTKYNEKFKGKATLTSDRSSSTVYMEFSSLTSEDSAVYFCARRGIYAYDHYFDYWGQGTSLTVSS
VL 1: QIVLTQSPAIMSASPGEKVTLTCSASSSVNYMYWYQQKPGSSPRLLIYDTSNLASGVPVRFSGSGSVTSYSLTISRMEAEDAATYYCQQWSTYPLTFGAGTKLELK
VH 2: QCDVKLVESGGGLVKPGGSLKLSCAASGFTFSDYPMSWVRQTPEKRLEWVATITTGGTYTYYPDSIKGRFTISRDNAKNTLYLQMGSLQSEDAAMYYCTRVKTDLWWGLAYWGQGTLVTVSA
VL 2: QLVLTQSSSASFSLGASAKLTCTLSSQHSTYTIEWYQQQPLKPPKYVMELKKDGSHTTGDGIPDRFSGSSSGADRYLSISNIQPEDESIYICGVGDTIKEQFVYVFGGGTKVTVLG
modifications: FAB′ hinge cysteine linked to ss-DNA
notes: Assembled on the SA sensor surface; also called T40-bi complex
